These results are taken from CN101798349A (INST BIOENGINEERING AMMS, dated 2010).

The target of the experiment is T1, uPAR蛋白 (尿激酶型纤溶酶原激活物受体, R&D Systems 807-UK-100) (UniProt Q03405 23-303, limits assumed).
T1 construct: Bought protein; also called 抗原uPAR
Briefly: SPR, Biacore 3000, CM5 chip, HBS-EP pH 7.4, 0-100 nmol/L, mean of 3 repeats.

T1 sequence (Q03405 23-303 limits assumed): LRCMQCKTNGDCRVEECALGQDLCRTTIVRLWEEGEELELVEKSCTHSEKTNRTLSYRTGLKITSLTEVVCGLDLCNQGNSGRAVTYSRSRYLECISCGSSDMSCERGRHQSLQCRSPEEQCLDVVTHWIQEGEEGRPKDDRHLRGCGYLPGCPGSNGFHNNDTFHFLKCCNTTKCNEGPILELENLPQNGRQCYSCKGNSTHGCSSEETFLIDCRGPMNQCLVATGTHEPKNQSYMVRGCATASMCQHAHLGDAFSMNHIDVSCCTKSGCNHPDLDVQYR

B1: 抗uPAR人源化抗体Y2B (antibody, V domains shown)
VH: EVQLVQSGAEVKKPGSSVKVSCKASGYTFTDYYIHWVRQAPGQGLEWIGWIFHGSDNTEYNEKFKSKATITADESTSTAYMELSSLRSEDTAVFYCARWGPHWYFDAWGRGTLVTVSP
VL: DIQMTQSPSTLSASVGDRVTITCRASSSVSYIHWYQQKPGRAPKPLMYEASSRATGVPSRFSGSGSGTEYTLTISSLQSDDFATYYCQQWNYPFTFGQGTKLEIKR
notes: also called 抗uPAR抗体Y2B; Y2B抗体
In general, Kd refers to a measure of binding affinity in units of concentration. High values mean lower affinity, low ones higher affinity. In the case of B1, the affinity, expressed as Kd, was 14.9 nM.
